Broadly, the Kd is the constant that tells how readily two partners part at equilibrium. Low values mean higher affinity, high ones lower affinity.

The target in the test is soluble human FcRn (human) (UniProt P55899). The test is described as follows: SPR; pH 6.0. Background: In SPR one partner is held on a chip, and binding of the other changes the refractive index at the surface.
UniProt P55899, sequence (P55899 24-297, chain 1 of 2): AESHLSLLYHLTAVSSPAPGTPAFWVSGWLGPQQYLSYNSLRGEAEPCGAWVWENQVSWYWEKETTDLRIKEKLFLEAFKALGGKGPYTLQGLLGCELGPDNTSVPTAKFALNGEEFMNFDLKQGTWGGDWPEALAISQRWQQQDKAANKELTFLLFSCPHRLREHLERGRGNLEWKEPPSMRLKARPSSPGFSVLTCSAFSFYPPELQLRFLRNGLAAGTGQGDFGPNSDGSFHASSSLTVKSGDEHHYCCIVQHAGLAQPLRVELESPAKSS
UniProt P55899, sequence (P61769 21-119, chain 2 of 2, further chain): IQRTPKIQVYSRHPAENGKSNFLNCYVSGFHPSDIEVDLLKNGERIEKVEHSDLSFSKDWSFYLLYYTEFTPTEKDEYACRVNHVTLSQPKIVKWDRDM
The substance hAK23-IgG1-DHS returned an equilibrium dissociation constant (Kd) of 137 nM. In the case of hAK23-IgG4-WT, the Kd is 215 nM. With hAK23-IgG1-WT the figure was 334 nM; with hAK23-IgG4-DHS, 64 nM.

For the origin of these results see paper PMC11499148.
